Test results from the supplement of paper PMC9170038.

Test system: MS2 coat protein
Test: apparent KD of MS2 coat protein; designed switch direction (-1 OFF switch, 1 ON switch): 1; higher = weaker reporter binding
In short: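 Designed RNA switches sharing common flanks were transcribed on Illumina chips by stalled E. coli RNA polymerase. They were titrated with SNAP-549-labelled MS2 coat protein, from 0.7 or 1.5 nM doubling to 3 µM, in Tris-HCl pH 7.5 buffer with KCl, MgCl2, BSA, DTT, tRNA and Tween-20. Titrations ran without input, with 200 uM small-molecule ligand, or with an oligonucleotide input. The apparent KD of each design is the median over its clusters, after curve-fitting of normalised cluster fluorescence.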

[1] = Eterna round: R95, input ligand: FMN 200 uM
[2] = Eterna round: R95, input ligand: microRNA oligo, concentration not stated
[3] = Eterna round: R95, input ligand: none
[4] = input ligand: microRNA oligo, concentration not stated

Sequence | apparent KD of MS2 coat protein [1] | apparent KD of MS2 coat protein [2] | apparent KD of MS2 coat protein [3] | apparent KD of MS2 coat protein (input ligand: FMN 200 uM) | apparent KD of MS2 coat protein [4] | apparent KD of MS2 coat protein (input ligand: none)
UACAAUCUAUCUGAGGAUAUCAUGAAUAAAACAUGAGGAUCACCCAUGUGCAGGAAAACUGCAUAUGAGAAGGCAGAUAGAUUGU [salish99_ss2_r3_067] (puzzle: Same State 2) | 45.9 nM | 181 nM | 556 nM | – | – | –
UACAAUCUAUCUGAGGAUAUCAUGAUUAUAACAUGAGGAUCACCCAUGUGCAGGAAAACUGCAUAUGAGAAGGCAGAUAGAUUGU [salish99_ss2_r3_069] (Eterna round: R96, puzzle: Same State 2) | – | – | – | 228 nM | 116 nM | 232 nM
UACAAUCUAUCUGAGGAUAUCAUGAUUAUAACAUGAGGAUCACCCAUGUGCAGGAAAACUGCAUAUGAGAAGGCAGAUAGAUUGU [salish99_ss2_r3_069] (puzzle: Same State 2) | 228 nM | 1630 nM | 110 nM | – | – | –
UACAUACGCGGAGGAUAUGGGCGAGGCGCAGAGGUCUGCACCAAAACAUGAGGAUCACCCAUGUCCCAGAAGGCCGCACAAACU [Onageenza] (Eterna round: R96, puzzle: Same State NG 2) | – | – | – | 19.9 nM | 48.8 nM | 71.9 nM
UACAUACGCGGAGGAUAUGGGCGAGGCGCGGAGGUCCGCGCCAAAACAUGAGGAUCACCCAUGUCCCAGAAGGCCGCACAAACU [Atusso] (Eterna round: R96, puzzle: Same State NG 2) | – | – | – | 15.1 nM | 66.4 nM | 86.6 nM
UAGAAACAUGAGGAUCACCCAUGUGUCAAAGACAUAGGAUAUCACGACUGGAGUCAAUCGUGAGAAGGGUGGUAAA [Usra] (puzzle: Same State 1) | 92.3 nM | 19.4 nM | 38.7 nM | – | – | –
UAGAAACAUGAGGAUCACCCAUGUGUCAAAGACAUAGGAUAUCACGGCUAAAAUCAGCCGUGAGAAGGGUGGUAAA [Aisbira] (puzzle: Same State 1) | 57.1 nM | 61.1 nM | 56.2 nM | – | – | –
UAGAAACAUGAGGAUCACCCAUGUGUCAGAGACAUAGGAUAUCGUAACCAGCGCCGGAUACGAGAAGGGUGGUAAA [Enraxe] (puzzle: Same State 1) | 156 nM | 38.5 nM | 51.3 nM | – | – | –
UAGAACAAGCUUUUUGCCCGUCUUAUAUAACAUGAGGAUCACCCAUGUAAGGUGAAAGUUAGAGAGUGGAGGAAGAA [JR_SHM208A_Sub053] (puzzle: Sensor for hsa-mir-208a) | 95.3 nM | 272 nM | 123 nM | – | – | –
UAGAAUCUAUCUCAGGAUAUCAUGUCAAAGACAUGAGGAUCACCCAUGUACCAGGAAACUGGUUAUGAGAAGGGAGAUAGAUUCU [Mat - Same State 2 - Mod - D33] (puzzle: Same State 2) | 160 nM | 158 nM | 281 nM | – | – | –
UAGAGAGGAAGCGAGGAUAUCGUGUGAGGUACAUGAGGAUCACCCAUGUUUGAUGUUGAGAGAGGCGAGAAGGCGCAGGAGAAAA [JR_SS2_Sub086] (puzzle: Same State 2) | 30.8 nM | 24.9 nM | 38.7 nM | – | – | –
UAGAGAGGAAGCGAGGAUAUCGUGUUAGGUACAUGAGGAUCACCCAUGUUGUAGGUAGAGGUAGGCGAGAAGGCGCAGGAGAGGU [JR_SS2_Sub094] (puzzle: Same State 2) | 33.4 nM | 38.8 nM | 41.4 nM | – | – | –
UAGCUCGUGUGAGGAUAUGCCGCCGUUUCGGCUGCAGAAGGUGCUACGUUACAUGAGGAUCACCCAUGUCUCUGUUGUUUCGUU [salish99_SSNG1_r04_956] (Eterna round: R96, puzzle: Same State NG 1) | – | – | – | 21.5 nM | 17.5 nM | 23.1 nM
UAGUGCAUUAGAGGAUAUUCUUACGAAAACGUAAAGACAUGAGGAUCACCCAUGUUGUCACAUGGGAAGAAGGCUGAUGUGCUA [Omei SS(NG)2 Bv3] (Eterna round: R96, puzzle: Same State NG 2) | – | – | – | 26.3 nM | 117 nM | 148 nM
UAUCAUUACACGAAGGAUAUCGAUAAUUGAACAUGAGGAUCACCCAUGUGAUAUAUUUUACAGUUCGAGAAGGUCGAGGGUGAAG [JR_SS002_Sub705] (Eterna round: R96, puzzle: Same State 2) | – | – | – | – | 28.5 nM | –
UAUCCAUAGAUAGGAUAUUAGUGAACAUGAGGAUCACCCAUGUUUGGCUUGGUUUUAAGCUAAUCUGAGAAGGAUCUUGAUGAA [SameState NG2 #7] (Eterna round: R96, puzzle: Same State NG 2) | – | – | – | 150 nM | 98.5 nM | 164 nM

Sequence | apparent KD of MS2 coat protein [1] | apparent KD of MS2 coat protein [2] | apparent KD of MS2 coat protein [3] | apparent KD of MS2 coat protein (input ligand: FMN 200 uM) | apparent KD of MS2 coat protein [4] | apparent KD of MS2 coat protein (input ligand: none)
UAUGAACAUGAGGAUCACCCAUGUGGAAAGGACACAGGAUAUCACCUCGGACGUGCGAUGUGAGAAGGGUGAUGGU [Anrelari] (puzzle: Same State 1) | 260 nM | 103 nM | 125 nM | – | – | –
UAUGCACAUGAGGAUCACCCAUGUGAUAGAAUCACAGGAUAUCACCUCGGACGUGCGAUGUGAGAAGGGUGGUCGU [Same State 1 - Mod of Vinnie Anrelari v.4] (puzzle: Same State 1) | 150 nM | 63.1 nM | 124 nM | – | – | –
UAUGCACAUGAGGAUCACCCAUGUGGUAAGACCACAGGAUAUCACCUCGGACGUGCGAUGUGAGAAGGGUGAUGGU [Same State 1 - Mod of Vinnie Anrelari v.3] (puzzle: Same State 1) | 491 nM | 289 nM | 379 nM | – | – | –
UAUUUAAUCAUAGGAUAUAGUGUGAAAUUUGGACUAGAAGGAUGUAACAUGAGGAUCACCCAUGUGGUAAGUGGGACACAGUGU [JR_SSNG1_Sub095] (Eterna round: R96, puzzle: Same State NG 1) | – | – | – | 164 nM | 69.4 nM | 141 nM
UCAAGCUUUUUGCUCGUUUUAUGUGUUGAACAUGAGGAUCACCCAUGUAUUGUACGAUCCAGUUAGAUGGUAAUUUG [JR_SHM208A_Sub041] (puzzle: Sensor for hsa-mir-208a) | 62.5 nM | 140 nM | 79.8 nM | – | – | –
UCAAUCAUGUAAGGAUAUGCAGCCGAAACGGCUGCAGAAGGUACUAUAAUUACAUGAGGAUCACCCAUGUUAUAAAAUUUAAAU [Mat - Same State NG 1 - JL mod - D68] (Eterna round: R96, puzzle: Same State NG 1) | – | – | – | 35.5 nM | 46 nM | 123 nM
UCAAUCAUGUAAGGAUAUGCAGCCGUUUCGGCUGCAGAAGGUACUAUAAUUACAUGAGGAUCACCCAUGUUAUAAAAUUUAUAU [JL SSNG1 1.26] (Eterna round: R96, puzzle: Same State NG 1) | – | – | – | 33.6 nM | 101 nM | 217 nM
UCAGAGGCGCUAGGAUAUCUCUCCGAGAAGCAGAGAGAAGGAGUGCGGAACCCAAGACCUACAUGAGGAUCACCCAUGUCUCAA [Eternabot solution 27] (Eterna round: R96, puzzle: Same State NG 1) | – | – | – | 22.8 nM | 22.9 nM | 38.7 nM
UCCUUGUGGGUAGGAUAUUUAGGAUAUGCGGAAGACUAAGUCUGUAGGUCACCUAACGCAGAAGGAGAGAAGGACCCUUCAGCA [pwkr ssNG2 2FMN + F9.32] (Eterna round: R96, puzzle: Same State NG 2) | – | – | – | 284 nM | 87.9 nM | 309 nM
UCGGGCGUACUUGCUGACAUGAGGAUCACCCAUGUGCUUGGGAAGGAUAUGGUUCCGUUUCGGUUCCAGAAGGUCCUGGCUGCU [salish99_SSNG3_r04_316] (Eterna round: R96, puzzle: Same State NG 3) | – | – | – | 116 nM | 47 nM | 79.8 nM
UCGGGCUCUGCUCGUCUUGAGUUGCUCCCACAUGAGGAUCACCCAUGUAGUGUGCCGAUCGGCGCGCGGGUGACUUU [Atresoso] (puzzle: Sensor for hsa-mir-208a) | 456 nM | 151 nM | 451 nM | – | – | –
UCUCGGGUCGUAGGAUAUGUAGGAUAUGUACAUGAGGAUCACCCAUGUCUACCAGAGACAGAAGGACAGAAGGACGAGCCACUC [pwkr ssNG2 2FMN 1F5s.5] (Eterna round: R96, puzzle: Same State NG 2) | – | – | – | 25.2 nM | 42.2 nM | 55.5 nM
UCUCGGGUCGUAGGAUAUGUAGGAUAUGUACAUGAGGAUCACCCAUGUCUACCAGAGACAGAAGGACAGAAGGACGAGCCGAUC [pwkr ssNG2 2FMN 1F5s.6] (Eterna round: R96, puzzle: Same State NG 2) | – | – | – | 20.9 nM | 25.8 nM | 43.7 nM
UCUCUUAUCGUAGGAUAUGUAGGAUAUGUACAUGAGGAUCACCCAUGUCUACCAGAGACAGAAGGACAGAAGGACGAACCACUC [pwkr ssNG2 2FMN 1F5s.4] (Eterna round: R96, puzzle: Same State NG 2) | – | – | – | 43.4 nM | 51.7 nM | 80.7 nM
UCUUGGUUUUUGCUCGUUUUUUGUGUUGAACAUGAGGAUCACCCAUGUAUUAUACGAUCCGGUUUAAUAAUAAUCCG [JMF 80] (puzzle: Sensor for hsa-mir-208a) | 23.7 nM | 16.1 nM | 27.2 nM | – | – | –
